Here are results for 1 molecule from patent publication US10314894B2, “Treatment of cardio-renal disease using PCSK6” (THE CLEVELAND CLINIC FOUNDATION, priority 2014, dated 2019).

“Also recorded” adds a separate entry of the source.

For this assay, the target named is T1, corin WT (Homo sapiens, UniProt Q9Y5Q5).
T1 construct: expressed in transfected cells; host or cells: HEK293
T1 sequence (Q9Y5Q5 1-1042): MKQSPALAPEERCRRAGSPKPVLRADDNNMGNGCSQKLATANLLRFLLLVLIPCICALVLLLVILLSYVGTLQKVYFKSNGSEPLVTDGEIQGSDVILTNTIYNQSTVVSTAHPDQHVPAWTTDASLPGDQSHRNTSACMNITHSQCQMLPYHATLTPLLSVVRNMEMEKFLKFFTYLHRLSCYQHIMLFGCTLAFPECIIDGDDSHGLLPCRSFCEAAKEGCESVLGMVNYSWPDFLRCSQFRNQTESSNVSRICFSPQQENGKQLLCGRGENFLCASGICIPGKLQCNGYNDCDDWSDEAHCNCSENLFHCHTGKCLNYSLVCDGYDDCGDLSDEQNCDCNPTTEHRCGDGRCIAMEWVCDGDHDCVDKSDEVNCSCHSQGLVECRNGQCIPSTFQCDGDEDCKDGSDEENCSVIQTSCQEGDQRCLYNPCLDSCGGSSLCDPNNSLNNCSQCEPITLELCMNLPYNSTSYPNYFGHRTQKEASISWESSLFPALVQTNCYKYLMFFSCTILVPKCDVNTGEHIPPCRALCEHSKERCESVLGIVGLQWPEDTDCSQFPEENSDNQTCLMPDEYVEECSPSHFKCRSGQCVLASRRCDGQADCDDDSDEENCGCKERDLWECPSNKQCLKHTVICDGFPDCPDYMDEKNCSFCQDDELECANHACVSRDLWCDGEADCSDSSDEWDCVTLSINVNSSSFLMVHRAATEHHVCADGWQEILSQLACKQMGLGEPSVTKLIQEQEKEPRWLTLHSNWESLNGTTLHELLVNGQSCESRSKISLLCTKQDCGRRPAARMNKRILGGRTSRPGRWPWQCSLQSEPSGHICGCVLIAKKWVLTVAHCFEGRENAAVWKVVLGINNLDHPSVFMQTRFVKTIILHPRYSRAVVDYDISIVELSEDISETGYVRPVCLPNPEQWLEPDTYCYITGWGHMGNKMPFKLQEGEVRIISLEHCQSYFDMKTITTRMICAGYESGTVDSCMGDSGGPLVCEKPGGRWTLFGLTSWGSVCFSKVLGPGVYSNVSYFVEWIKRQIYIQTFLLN
Put plainly: Corin activation by purified PCSK6 on HEK293 cells, corin WT. The format is cell-based. The conditions noted are these: increasing concentrations, 2 h, 37° C. As for the experimental part: HEK293 and HL-1 cells expressing recombinant corin in 6-well plates were incubated with 1.5 mL (200 μM) of membrane impermeable Sulfo-NHS-SS-biotin for 5 min. Qi et al., J Biol Chem 286, 20963-20969 (2011). A quenching solution was added to the wells and incubated on ice for 10 min. Cells were lysed in the lysis buffer. Labeled proteins were isolated with avidin-coupled agarose beads and analyzed by Western blotting.
Stable HEK293 cells were established to produce human PCSK6 with a C-terminal flag tag. The cells were cultured in DMEM with 10% FBS and 600 μg/mL G418. At confluency, the cells were washed with PBS and cultured with Reduced-Serum Medium. After 72 h, the conditioned medium was collected, centrifuged (10 min at 17,000 g) to remove cell debris, and concentrated to ⅕ of the original volume using a Centrifugal filter unit at 4° C. The concentrated medium was incubated with anti-flag M2 affinity bead slurry in a volume ratio of 25:1 on a rotator at 4° C. for 2 h. […] After centrifugation, the supernatant containing purified PCSK6 was collected, and analyzed by SDS-PAGE followed by silver staining and Western blotting.
Stable HEK293 cells expressing human corin were cultured in 6-well plates in DMEM with 10% FBS and 2 μM monensin. […] After 2 h, cell surface proteins were labeled and corin protein was analyzed by Western blotting.

B1: proprotein convertase subtilisin/kexin-6 (protein, listed as Homo sapiens)
chain: MPPRAPPAPGPRPPPRAAAATDTAAGAGGAGGAGGAGGPGFRPLAPRPWRWLLLLALPAACSAPPPRPVYTNHWAVQVLGGPAEADRVAAAHGYLNLGQIGNLEDYYHFYHSKTFKRSTLSSRGPHTFLRMDPQVKWLQQQEVKRRVKRQVRSDPQALYFNDPIWSNMWYLHCGDKNSRCRSEMNVQAAWKRGYTGKNVVVTILDDGIERNHPDLAPNYDSYASYDVNGNDYDPSPRYDASNENKHGTRCAGEVAASANNSYCIVGIAYNAKIGGIRMLDGDVTDVVEAKSLGIRPNYIDIYSASWGPDDDGKTVDGPGRLAKQAFEYGIKKGRQGLGSIFVWASGNGGREGDYCSCDGYTNSIYTISVSSATENGYKPWYLEECASTLATTYSSGAFYERKIVTTDLRQRCTDGHTGTSVSAPMVAGIIALALEANSQLTWRDVQHLLVKTSRPAHLKASDWKVNGAGHKVSHFYGFGLVDAEALVVEAKKWTAVPSQHMCVAASDKRPRSIPLVQVLRTTALTSACAEHSDQRVVYLEHVVVRTSISHPRRGDLQIYLVSPSGTKSQLLAKRLLDLSNEGFTNWEFMTVHCWGEKAEGQWTLEIQDLPSQVRNPEKQGKLKEWSLILYGTAEHPYHTFSAHQSRSRMLELSAPELEPPKAALSPSQVEVPEDEEDYTAQSTPGSANILQTSVCHPECGDKGCDGPNADQCLNCVHFSLGSVKTSRKCVSVCPLGYFGDTAARRCRRCHKGCETCSSRAATQCLSCRRGFYHHQEMNTCVTLCPAGFYADESQKNCLKCHPSCKKCVDEPEKCTVCKEGFSLARGSCIPDCEPGTYFDSELIRCGECHHTCGTCVGPGREECIHCAKNFHFHDWKCVPACGEGFYPEEMPGLPHKVCRRCDENCLSCAGSSRNCSRCKTGFTQLGTSCITNHTCSNADETFCEMVKSNRLCERKLFIQFCCRTCLLAG
modifications: C-terminal FLAG tag
On to B1, for which the “activation of corin on the cell surface by purified recombinant PCSK6” value is listed as “activated corin on the surface of HEK293 cells in a dose-depending manner; also recorded: activated corin WT”.
